# In the supplement of paper PMC9170038:
# Test system: K4 kissing-loop RNA reporter
# Assay: apparent KD of K4 kissing-loop reporter; higher = weaker reporter binding
# Details: Eterna round: R107
# Protocol: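 RNA-MaP round R107: designed RNA switches with theophylline, tryptophan, arginine or FMN aptamers are transcribed on-chip within common flanks. They are titrated with a labelled K4 kissing-loop RNA reporter in RNA-MaP buffer (100 mM Tris pH 7.5, 80 mM KCl, 4 mM MgCl2), without ligand or with the indicated ligand. Median apparent KD per design.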
# [1] = input ligand: theophylline 20 uM
# [2] = input ligand: tryptophan 2.4 mM
# 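Further: bound reporter read as fluorescence of individual clusters on recovered sequencing chips by microscopy, with normalized cluster intensities fitted with a binding model.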
Sequence,apparent KD of K4 kissing-loop reporter (input ligand: FMN 200 uM) [nM],apparent KD of K4 kissing-loop reporter (input ligand: arginine 13.2 mM) [nM],apparent KD of K4 kissing-loop reporter (input ligand: none) [nM],apparent KD of K4 kissing-loop reporter [1] [nM],apparent KD of K4 kissing-loop reporter [2] [nM]
CUAACGGUACGAGUGAUGUUCAGCAAGGAUACCAGCGGACAGUCACGCCCUUGGCAGCCUAGUUUCUACCCGUCGGAAUUUCUUA [theeternabot_sameState_KL_Theo_A_2],623,366,599,461,527
GUAUGUGAUGGAAACAUCGCAUACACUGAUACCAGUAUCGAUAGAUACCCUUGGCAGCAGAAAACUGCAAUUGGAGUGAUGUUCC [Ex Theophylline A K4 1],213,175,229,216,201
CCCGUGGGUUCGAGAGGGCUUGUGGGAAGUAAGGAUAUUUAGGGAGAAAGAAGGUACUAUAGAAUAUAGUGAUGUUAUAUAUGGG [#07 K4 FMN A Same State],402,435,454,347,203
UGUAUGUGAUUUGAUACCAGACCAGCUGAUGGAUCACGAGUGAUGUUCGUGUUGGUUUGGGUCCCUUGGCAGCAAAUCGCAUACU [KL-SSTheoB14],308,282,324,248,285
CGCCGCAAGGCGAGCGCUCCCACUCCGGAAGGAGCGCCCGAAAGGGCAGGUAGGUCGCCGGAGUGAUGUUCCGGUGGAGGGCUCG [#2 Exclusion - Arginine A Attempt #27 (Inspired by Omei)],379,185,432,360,529
CGGAUGUAGUGAUGUUAUAUUAGAUGUAGACGAGGACCGGUACGGCCGCCACUCGAAACGGCUACUAGCGCGUUGCGAGGUGUGC [ExTryptoA.CJ],737,525,686,784,480
AGUGAUGUGGGAAGGAGCGCUACAAGACUUCAGUGAUGUUGAAGUGAUGAUUUAGUGUUGUAGCAGGUAGGUCGCCUAGAUGUUA [KL-XARG-B9],60.9,27,44.9,36.2,39.1
GUAUCAGUGAUGUUGGUAGGCGAGCGGGAUACCAGCCAAGACUCAGGCCCUUGGCAGCCCACAUAUCCCACGUAGAUAGUAGCUC [Same State - Theophylline A (Freestyle 15)],155,95.6,149,139,133
UGUCUUCAGUGAUGUUGAUGACAACACUUAAAGGAUAUGCGAGAGAGCAGAAGGUUAAACAACGCGCAAAUCAAGGAGGGUCUAG [theeternabot_exclusion_KL_FMN_A_30],193,161,178,196,174
GCCGUAGAUUGAAGGAGCGUUCUUCAGCAAACUUGCAGUGAUGUUGCAUUAAACAUGUAAGAACAGGUAGGUCGCAAUCUACGGC,145,138,155,129,121
UUAGGAGUGGGAGGAUAUCCUAAUGUGGGUGAUGUUAGUGAUGUUGAAAGUGUAGUGAUGUUGUGCGGAGAAGGUCCAGUGUUGA [BDazzled - #11 - Exc. FMN B],212,133,210,192,157
GCAGUGAUGUUGCGCAUGUACAGUGGAGUGCGAGGACCGGUACGGCCGCCACUCGUACAGAACAAGCUAAUAUAUGGAUAGGUGA [IX],418,525,543,510,306
AGACUACCACACUGUCAAUAGACAGUGGACUAGGAUAUGCUGAUAAGCAGAAGGAGUGAUGUUCCAAGGUAGUCAAUAAAAUAAU [FmnAX 13 G28+A66],294,257,309,396,279
UUUCGUUGAAGUGAUACCAGACUUGAAAGUGAUGUUUUCCAAUAAUUUAAAUUAUUAGCUGUCCCUUGGCAGCACAGUUUAUUUA [JR_ExcTheophyB_Sub007],255,371,327,443,208
UGGAUAUAGUGAUGUUAUAUAGAGAGUGAUACCAGUUUAGAGAAGAACCCUUGGCAGCAUAGAAGAGUAUCAUUGGAGAAGAAUG [ExTheophyl.Aq],243,193,242,181,155
GUGAAUGGCUGAGCAGCCGUGGUACGAGAUACCAGUGAUUUCGAUCACCCUUGGCAGCUCGGCGUGAGUGAUGUUCACGCUACAC [Theo A SS t12a],273,278,300,330,270
